The target in data set [1] is T1, LIG1 EE/AA (C-terminal, Δ261) (UniProt P18858 262-919, E346A;E592A). The data set can be described thus: X-ray crystallography; post-catalytic, nick sealed; EDTA, no metal added; BLI: 20 mM HEPES pH 7.4, 200 mM NaCl, 0.5% BSA, 0.05% Tween 20, 40 nM DNA loaded, sensors hydrated at 20 C; crystals: 20 mM Tris-HCl pH 7.0, 200 mM NaCl, 1 mM DTT, 1 mM EDTA, 1 mM ATP, 1.4:1 DNA:protein, 20 C. Conditions: protein: recombinant; tags: 6xHis; nicked duplex, blunt outer ends; 8-oxorG:A Hoogsteen pair; nick sealed in crystal.
T1 sequence (P18858 262-919 E346A/E592A): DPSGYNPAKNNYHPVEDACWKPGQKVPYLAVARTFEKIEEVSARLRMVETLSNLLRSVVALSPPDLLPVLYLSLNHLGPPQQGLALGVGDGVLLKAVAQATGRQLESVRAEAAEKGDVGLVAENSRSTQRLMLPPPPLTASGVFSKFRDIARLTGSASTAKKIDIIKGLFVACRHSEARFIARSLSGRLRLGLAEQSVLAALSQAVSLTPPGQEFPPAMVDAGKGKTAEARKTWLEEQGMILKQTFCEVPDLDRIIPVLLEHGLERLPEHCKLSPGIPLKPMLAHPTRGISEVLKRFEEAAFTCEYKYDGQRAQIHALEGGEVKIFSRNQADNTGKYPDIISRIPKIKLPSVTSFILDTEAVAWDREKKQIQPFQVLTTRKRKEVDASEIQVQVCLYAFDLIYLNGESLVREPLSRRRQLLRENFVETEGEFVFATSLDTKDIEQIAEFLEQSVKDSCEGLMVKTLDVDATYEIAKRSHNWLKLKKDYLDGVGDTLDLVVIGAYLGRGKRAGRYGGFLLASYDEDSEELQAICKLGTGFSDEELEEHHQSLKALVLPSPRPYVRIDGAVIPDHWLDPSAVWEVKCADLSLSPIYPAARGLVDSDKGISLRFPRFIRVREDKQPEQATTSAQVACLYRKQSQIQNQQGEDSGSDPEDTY

Data set [2] concerns the target T1, LIG1 EE/AA (C-terminal, Δ261). The data set can be described thus: X-ray crystallography; AMP, pre-catalytic (DNA-AMP); EDTA, no metal added; BLI: 20 mM HEPES pH 7.4, 200 mM NaCl, 0.5% BSA, 0.05% Tween 20, 40 nM DNA loaded, sensors hydrated at 20 C; crystals: 20 mM Tris-HCl pH 7.0, 200 mM NaCl, 1 mM DTT, 1 mM EDTA, 1 mM ATP, 1.4:1 DNA:protein, 20 C. Conditions: protein: recombinant, tags: 6xHis, nicked duplex, blunt outer ends.

Another data set has as its target LIG1 wild-type (UniProt P18858 262-919). Described as above. The settings on record: protein: recombinant; tags: 6xHis; nicked duplex, blunt outer ends; 8-oxoG:C Watson-Crick pair at nick.

LIG1 wild-type, sequence (P18858 262-919): as the sequence (P18858 262-919 E346A/E592A) above, with A85E, A331E counted along it

B1: nick 3'-8-oxorG:A (mixed)
DNA 1: GCTGATGCGTG
DNA 2: GTCGGAC
DNA 3: GTCCGACAACGCATCAGC
modifications: 8-oxo-riboG at 3' end of strand 1 (nt 11), rest DNA; 5'-phosphate on strand 2; strands 1 and 2 ligated in the crystal
Consider B1, for which the binding result in data set [1] was “binds”.

B2: nick 3'-8-oxodG:A (dsDNA)
DNA 1: GCTGATGCGTG
DNA 2: GTCGGAC
DNA 3: GTCCGACAACGCATCAGC
modifications: 8-oxodG at 3' end of strand 1 (nt 11); 5'-phosphate on strand 2 (5'-AMP in crystal)
As to B2, in data set [2] (8-oxoG:A Hoogsteen pair at nick), the binding result is given as “binds”.

B3: nick 3'-8-oxorG:C (mixed)
DNA 1: GCTGATGCGTG
DNA 2: GTCGGAC
DNA 3: GTCCGACCACGCATCAGC
modifications: 8-oxo-riboG at 3' end of strand 1 (nt 11), rest DNA; 5'-phosphate on strand 2 (5'-AMP in crystal)
Take B3: the binding result in data set [2] (8-oxorG:C Watson-Crick pair at nick) was “binds”.

B4: nick 3'-8-oxodG:C (dsDNA)
DNA 1: GCTGATGCGTG
DNA 2: GTCGGAC
DNA 3: GTCCGACCACGCATCAGC
modifications: 8-oxodG at 3' end of strand 1 (nt 11); 5'-phosphate on strand 2 (5'-AMP in crystal)
For the molecule B4, the binding result (with LIG1 wild-type; in data set [2] (8-oxoG:C Watson-Crick pair at nick)) was “binds” throughout.

The values above are taken from paper PMC12693511, “Processing of DNA single-strand breaks with oxidatively damaged ends by LIG1”.
